Measurements published in US20150064204A1 (Amgen, published 2015).

Legend:
human GITR [1] = target: T1, human GITR (human, UniProt Q9Y5U5 26-241); experiment: cell-based or functional assay
T1 sequence: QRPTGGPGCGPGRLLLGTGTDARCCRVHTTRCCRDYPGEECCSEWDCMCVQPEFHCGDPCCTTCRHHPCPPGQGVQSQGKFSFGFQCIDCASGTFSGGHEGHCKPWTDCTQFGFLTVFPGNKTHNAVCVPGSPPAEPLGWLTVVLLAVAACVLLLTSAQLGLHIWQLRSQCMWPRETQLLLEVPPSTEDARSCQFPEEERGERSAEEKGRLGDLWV

human GITR [2] = target: T1, human GITR; experiment: flow cytometry on activated human T cells

Binder | Proliferation (Fold over CD3) (human GITR [1]) | Proliferation EC50 (human GITR [1]) | EC50 (human GITR [2])
7A10 (antibody, human IgG1, kappa, V domains shown, Parental fully human antibody; also called Ab18; SS-10944) VH: QVQLVESGGGVVQPGRSLRLSCAASGFTFSSYGMHWVRQAPGKGLEWMAVIWYVGSNKYYADSVKGRFTISRDNSKNTLYLQMNSLSAEDTAVYYCARGGELGRDYYSGMDVWGQGTTVTVSS VL: DIQMTQSPSSLSASVGDRVTITCRASQGIRNDLGWYQQKPGKAPKRLIYAASSLQSGVPSRFSGSGSGTEFTLTISSLQPEDFATYYCQQHNSYPWTFGQGTKVEIKR | 3.4 fold over CD3 | 0.012 µg/mL | 0.067 µg/mL
7A10v4 (antibody, human IgG1, kappa, V domains shown, Engineered variant; also called Ab42; SS-16940) VH: QVQLVESGGGVVQPGRSLRLSCAASGFTFSSYGMHWVRQAPGKGLEWMAVIWYVGSNKYYADTVKGRFTISRDNSKNTLYLQMNSLRAEDTAVYYCARGGELGRDYYSGMDVWGQGTTVTVSS VL: DIQMTQSPSSLSASVGDRVTITCRASQGIRNDLGWYQQKPGKAPKRLIYAASSLQSGVPSRFSGSGSGTEFTLTISSLQPEDFATYYCQQHNSYPWTFGQGTKVEIKR | 60 fold over CD3 | 0.006 µg/mL | 0.002 µg/mL
9H6v2 (antibody, human IgG1, kappa, V domains shown, Engineered variant; also called Ab45; SS-16944) VH: QVQLVESGGGVVQPGRSLRLSCVASGFTFSSYGMHWIRQAPGKGLEWVAVIWYEGSNKYYADSVKGRFTISRDNSKNTLYLQMNSLRAEDTAVYYCARGGRLGKDYYSGMDVWGQGTTVTVSS VL: DIQMTQSPSSLSASVGDRVTITCRASQGIRNDLGWYQQKPGKAPKLLIYATSSLQSGVPSRFSGSGSGTEFTLTISSLQPEDFATYYCLQHNTYPWTFGQGTKVEIKR | 2.2 fold over CD3 | 0.019 µg/mL | 0.423 µg/mL
7A10v5 (antibody, human IgG1, kappa, V domains shown, Engineered variant; also called Ab43; SS-16941) VH: QVQLVESGGGVVQPGRSLRLSCAASGFTFSSYGMHWVRQAPGKGLEWMAVIWYVGSNKYYAESVKGRFTISRDNSKNTLYLQMNSLRAEDTAVYYCARGGELGRDYYSGMDVWGQGTTVTVSS VL: DIQMTQSPSSLSASVGDRVTITCRASQGIRNDLGWYQQKPGKAPKLLIYAASSLQSGVPSRFSGSGSGTEFTLTISSLQPEDFATYYCQQHNSYPWTFGQGTKVEIKR | 0.6 fold over CD3 | 0.02 µg/mL | 0.783 µg/mL
9H6 (antibody, human IgG1, kappa, V domains shown, Parental fully human antibody; also called Ab19; SS-10945) VH: QVQLVESGGGVVQPGRSLRLSCVASGFTFSSYGMHWIRQAPGKGLEWVAVIWYEGSNKYYADSVKGRFTISRDNSKNTLYLQMNSLRAEDTAVYYCARGGRLGKDYYSGMDVWGQGTTVTVSS VL: DIQMTQSPSSLSASVGDRVTITCRASQGIRNDLGWYQQKPGKAPNRLIYATSSLQSGVPSRFSGSGSGTEFTLTISSLQPEDFATYYCLQHNTYPWTFGQGTKVEIKR | 3 fold over CD3 | 0.007 µg/mL | 0.134 µg/mL
7A10v2 (antibody, human IgG1, kappa, V domains shown, Engineered variant; also called Ab40; SS-16938) VH: QVQLVESGGGVVQPGRSLRLSCAASGFTFSSYGMHWVRQAPGKGLEWMAVIWYVGSNKYYADSVKGRFTISRDNSKNTLYLQMNSLRAEDTAVYYCARGGELGRDYYSGMDVWGQGTTVTVSS VL: DIQMTQSPSSLSASVGDRVTITCRASQGIRNDLGWYQQKPGKAPKLLIYAASSLQSGVPSRFSGSGSGTEFTLTISSLQPEDFATYYCQQHNSYPWTFGQGTKVEIKR | 0.7 fold over CD3 | 0.043 µg/mL | 0.861 µg/mL
9H6v1 (antibody, human IgG1, kappa, V domains shown, Engineered variant; also called Ab44; SS-16943) VH: QVQLVESGGGVVQPGRSLRLSCVASGFTFSSYGMHWIRQAPGKGLEWVAVIWYEGSNKYYADSVKGRFTISRDNSKNTLYLQMNSLRAEDTAVYYCARGGRLGKDYYSGMDVWGQGTTVTVSS VL: DIQMTQSPSSLSASVGDRVTITCRASQGIRNDLGWYQQKPGKAPKRLIYATSSLQSGVPSRFSGSGSGTEFTLTISSLQPEDFATYYCLQHNTYPWTFGQGTKVEIKR | 3.2 fold over CD3 | 0.004 µg/mL | 0.144 µg/mL
7A10v3 (antibody, human IgG1, kappa, V domains shown, Engineered variant; also called Ab41; SS-16939) VH: QVQLVESGGGVVQPGRSLRLSCAASGFTFSSYGMHWVRQAPGKGLEWMAVIWYVGSNKYYAESVKGRFTISRDNSKNTLYLQMNSLRAEDTAVYYCARGGELGRDYYSGMDVWGQGTTVTVSS VL: DIQMTQSPSSLSASVGDRVTITCRASQGIRNDLGWYQQKPGKAPKRLIYAASSLQSGVPSRFSGSGSGTEFTLTISSLQPEDFATYYCQQHNSYPWTFGQGTKVEIKR | 55 fold over CD3 | 0.046 µg/mL | 0.003 µg/mL
5H7v5 (antibody, human IgG1, kappa, V domains shown) VH: QVQLQESGPGLVKPSETLSLTCTVSGGSISSGGYFWSWIRQPPGKGLEWIGYIYYSGTTYYNPSLKSRVTISIDTSKNQFSLKLSSVTAADTAVYYCARDLFYYESSGPRGFEPWGQGTLVTVSS VL: EIVLTQSPGTLSLSPGERATLSCRASQTVSSNYLAWYQQKPGQAPRLLIYGSSTRATGIPDRFSGSGSGTDFTLTISRLEPEDFAVYYCQQYDSSPWTFGQGTKVEIKR | 1.4 fold over CD3 | 0.021 µg/mL | –
5H7v1 (antibody, human IgG1, kappa, V domains shown) VH: QVQLQESGPGLVKPSETLSLTCTVSGGSISSGGYFWSWIRQPPGKGLEWIGYIYYSGTTYYNPSLKSRVTISIDTSKNQFSLKLSSVTAADTAVYYCARDLFYYESSGPRGFDPWGQGTLVTVSS VL: EIVLTQSPGTLSLSPGERATLSCRASQTVSSNYLAWYQQKPGQAPRLLIYGSSTRATGIPDRFSGSGSGTDFTLTISRLEPEDFAVYYCQQYDSSPWTFGQGTKVEIKR | 1 fold over CD3 | 0.033 µg/mL | –
5H7v17 (antibody, human IgG1, kappa, V domains shown) VH: QVQLQESGPGLVKPSETLSLTCTVSGGSISSGGYFWSWIRQPPGKGLEWIGYIYYSGTTYYNPSLKSRVTISIDTSKNQFSLKLSSVTAADTAVYYCARDLFYYDTSGPRGFDPWGQGTLVTVSS VL: EIVLTQSPGTLSLSPGERATLSCRASQTVSSNYLAWYQQKPGQAPRLLIYGSSTRATGIPDRFSGSGSGTDFTLTISRLEPEDFAVYYCQQYDTSPWTFGQGTKVEIKR | 3 fold over CD3 | 0.024 µg/mL | –
5H7v13 (antibody, human IgG1, kappa, V domains shown) VH: QVQLQESGPGLVKPSETLSLTCTVSGGSISSGGYFWSWIRQPPGKGLEWIGYIYYSGTTYYNPSLKSRVTISIDTSKNQFSLKLSSVTAADTAVYYCARDLFYYDTSGPRGFDPWGQGTLVTVSS VL: EIVLTQSPGTLSLSPGERATLSCRASQTVSSNYLAWYQQKPGQAPRLLIYGSSTRATGIPDRFSGSGSGTDFTLTISRLEPEDFAVYYCQQYESSPWTFGQGTKVEIKR | 1.2 fold over CD3 | 0.113 µg/mL | –
5H7v10 (antibody, human IgG1, kappa, V domains shown) VH: QVQLQESGPGLVKPSETLSLTCTVSGGSISSGGYFWSWIRQPPGKGLEWIGYIYYSGTTYYNPSLKSRVTISIDTSKNQFSLKLSSVTAADTAVYYCARDLFYYDSSGPRGFDPWGQGTLVTVSS VL: EIVLTQSPGTLSLSPGERATLSCRASQTVSSNYLAWYQQKPGQAPRLLIYGSSTRATGIPDRFSGSGSGTDFTLTISRLEPEDFAVYYCQQYESSPWTFGQGTKVEIKR | 0.6 fold over CD3 | 0.039 µg/mL | –
5H7v11 (antibody, human IgG1, kappa, V domains shown) VH: QVQLQESGPGLVKPSETLSLTCTVSGGSISSGGYFWSWIRQPPGKGLEWIGYIYYSGTTYYNPSLKSRVTISIDTSKNQFSLKLSSVTAADTAVYYCARDLFYYDSSGPRGFDPWGQGTLVTVSS VL: EIVLTQSPGTLSLSPGERATLSCRASQTVSSNYLAWYQQKPGQAPRLLIYGSSTRATGIPDRFSGSGSGTDFTLTISRLEPEDFAVYYCQQYDTSPWTFGQGTKVEIKR | 2 fold over CD3 | 0.032 µg/mL | –
